Data taken from patent US20120134997A1 (COMPUGEN, published 2012).

Target: T1, B7H4-Ig (R&D Systems, Inc. cat.#4206-B7) (mouse, UniProt Q7TSP5 29-256)
T1 construct: Bought reagent; also called Recombinant mouse B7-H4 protein (R&D Systems, CAT #4206-B7); not shown: Ig part of the bought fusion; not described
T1 sequence (looked up): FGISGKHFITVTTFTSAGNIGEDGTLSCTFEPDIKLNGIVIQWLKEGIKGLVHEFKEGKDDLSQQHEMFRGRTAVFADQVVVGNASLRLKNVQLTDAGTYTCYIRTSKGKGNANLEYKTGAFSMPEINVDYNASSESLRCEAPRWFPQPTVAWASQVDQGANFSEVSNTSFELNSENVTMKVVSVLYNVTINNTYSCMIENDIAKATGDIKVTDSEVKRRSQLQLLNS
Assay: BIAcore 3000 surface plasmon resonance; Fc fused AI216611 ECD (SEQ ID NO:104) immobilised directly on a CM5 chip (400-500 RU), B7H4-Ig injected at 5 and 10 µM, empty flow cell subtracted
Protocol: Solution containing two different concentrations of B7H4-Ig (5 and 10 micro molar) was injected. As control, the solutions were also injected onto an empty flow cell with no ligand immobilized.
Data was analyzed using BIAevaluation software ([…].). A zero baseline level was obtained by subtracting the background responses from injection of the analytes through a control flow cell with no ligand immobilized.

B1: AI216611_T0_P0_ECD_mFc (Fc fused AI216611 ECD, SEQ ID NO:104) (Fc fusion)
chain: LQSQGVSLYIPQATINATVKEDILLSVEYSCHGVPTIEWTYSSNWGTQKIVEWKPGTQANISQSHKDRVCTFDNGSIQLFSVGVRDSGYYVITVTERLGSSQFGTIVLHVSEILYEDGSENLYFQGSGEPRGPTIKPCPPCKCPAPNLLGGPSVFIFPPKIKDVLMISLSPIVTCVVVDVSEDDPDVQISWFVNNVEVHTAQTQTHREDYNSTLRVVSALPIQHQDWMSGKEFKCKVNNKDLPAPIERTISKPKGSVRAPQVYVLPPPEEEMTKKQVTLTCMVTDFMPEDIYVEWTNNGKTELNYKNTEPVLDSDGSYFMYSKLRVEKKNWVERNSYSCSVVHEGLHNHHTTKSFSRTPGK
notes: also called AI216611-ECD-Fc
binding result: binds
